Literature values as cited in PMC6277024.

Target: WRESAI hexapeptide

For Tip-1 PDZ (from UniProt O14907), the Kd is given as 10 nM.
